Substitutions are numbered along the chain they refer to. Numbers in names are those of the source.
B1: ad2-100K fused with a C terminal 2 × Strep tag (natural protein, human adenovirus type 2 (ad2), UniProt P24932 1-805, looked up)
chain: MESVEKEDSLTAPFEFATTASTDAANAPTTFPVEAPPLEEEEVIIEQDPGFVSEDDEDRSVPTEDKKQDQDDAEANEEQVGRGDQRHGDYLDVGDDVLLKHLQRQCAIICDALQERSDVPLAIADVSLAYERHLFSPRVPPKRQENGTCEPNPRLNFYPVFAVPEVLATYHIFFQNCKIPLSCRANRSRADKQLALRQGAVIPDIASLDEVPKIFEGLGRDEKRAANALQQENSENESHCGVLVELEGDNARLAVLKRSIEVTHFAYPALNLPPKVMSTVMSELIVRRARPLERDANLQEQTEEGLPAVGDEQLARWLETREPADLEERRKLMMAAVLVTVELECMQRFFADPEMQRKLEETLHYTFRQGYVRQACKISNVELCNLVSYLGILHENRLGQNVLHSTLKGEARRDYVRDCVYLFLCYTWQTAMGVWQQCLEERNLKELQKLLKQNLKDLWTAFNERSVAAHLADIIFPERLLKTLQQGLPDFTSQSMLQNFRNFILERSGILPATCCALPSDFVPIKYRECPPPLWGHCYLLQLANYLAYHSDIMEDVSGDGLLECHCRCNLCTPHRSLVCNSQLLSESQIIGTFELQGPSPDEKSAAPGLKLTPGLWTSAYLRKFVPEDYHAHEIRFYEDQSRPPNAELTACVITQGHILGQLQAINKARQEFLLRKGRGVYLDPQSGEELNPIPPPPQPYQQPRALASQDGTQKEAAAAAAATHGRGGILGQSGRGGFGRGGGDDGRLGQPRRSFRGRRGVRRNTVTLGRIPLAGAPEIGNRSQHRYNLRSSGAAGTACSPTQP
modifications: intermolecular disulfide bonds C515-C516' and C516-C515' between the two protomers
B2: ad2-100K truncation mutant Δ680–805 with a C terminal 2 × Strep tag (domain or fragment, human adenovirus type 2 (ad2), UniProt P24932 1-679, looked up)
chain: MESVEKEDSLTAPFEFATTASTDAANAPTTFPVEAPPLEEEEVIIEQDPGFVSEDDEDRSVPTEDKKQDQDDAEANEEQVGRGDQRHGDYLDVGDDVLLKHLQRQCAIICDALQERSDVPLAIADVSLAYERHLFSPRVPPKRQENGTCEPNPRLNFYPVFAVPEVLATYHIFFQNCKIPLSCRANRSRADKQLALRQGAVIPDIASLDEVPKIFEGLGRDEKRAANALQQENSENESHCGVLVELEGDNARLAVLKRSIEVTHFAYPALNLPPKVMSTVMSELIVRRARPLERDANLQEQTEEGLPAVGDEQLARWLETREPADLEERRKLMMAAVLVTVELECMQRFFADPEMQRKLEETLHYTFRQGYVRQACKISNVELCNLVSYLGILHENRLGQNVLHSTLKGEARRDYVRDCVYLFLCYTWQTAMGVWQQCLEERNLKELQKLLKQNLKDLWTAFNERSVAAHLADIIFPERLLKTLQQGLPDFTSQSMLQNFRNFILERSGILPATCCALPSDFVPIKYRECPPPLWGHCYLLQLANYLAYHSDIMEDVSGDGLLECHCRCNLCTPHRSLVCNSQLLSESQIIGTFELQGPSPDEKSAAPGLKLTPGLWTSAYLRKFVPEDYHAHEIRFYEDQSRPPNAELTACVITQGHILGQLQAINKARQEFLLRKGR
B3: ad2-100K truncation mutant Δ693–805 with a C terminal 2 × Strep tag (domain or fragment, human adenovirus type 2 (ad2), UniProt P24932 1-692, looked up)
chain: MESVEKEDSLTAPFEFATTASTDAANAPTTFPVEAPPLEEEEVIIEQDPGFVSEDDEDRSVPTEDKKQDQDDAEANEEQVGRGDQRHGDYLDVGDDVLLKHLQRQCAIICDALQERSDVPLAIADVSLAYERHLFSPRVPPKRQENGTCEPNPRLNFYPVFAVPEVLATYHIFFQNCKIPLSCRANRSRADKQLALRQGAVIPDIASLDEVPKIFEGLGRDEKRAANALQQENSENESHCGVLVELEGDNARLAVLKRSIEVTHFAYPALNLPPKVMSTVMSELIVRRARPLERDANLQEQTEEGLPAVGDEQLARWLETREPADLEERRKLMMAAVLVTVELECMQRFFADPEMQRKLEETLHYTFRQGYVRQACKISNVELCNLVSYLGILHENRLGQNVLHSTLKGEARRDYVRDCVYLFLCYTWQTAMGVWQQCLEERNLKELQKLLKQNLKDLWTAFNERSVAAHLADIIFPERLLKTLQQGLPDFTSQSMLQNFRNFILERSGILPATCCALPSDFVPIKYRECPPPLWGHCYLLQLANYLAYHSDIMEDVSGDGLLECHCRCNLCTPHRSLVCNSQLLSESQIIGTFELQGPSPDEKSAAPGLKLTPGLWTSAYLRKFVPEDYHAHEIRFYEDQSRPPNAELTACVITQGHILGQLQAINKARQEFLLRKGRGVYLDPQSGEELN
B4: ad2-100K mutant C515S-C516S-strepII (natural protein, human adenovirus type 2 (ad2), UniProt P24932 1-805, looked up)
chain: B1 chain with C515S, C516S

Biological target: the molecule itself
Experiment: GraFix

| Protein | stoichiometry N | binding result |
| --- | --- | --- |
| B1 | 2 | – |
| B2 | – | binds |
| B3 | – | binds |
| B4 | – | binds |
